Experimental data reported in IntAct's records for PubMed 23468526.

B1: Moesin/ezrin/radixin homolog 1 (Drosophila melanogaster (Fruit fly)), P46150 (parent)
chain: MSPKALNVRVTTMDAELEFAIQSTTTGKQLFDQVVKTIGLREVWFFGLQYTDSKGDSTWIKLYKKVMNQDVKKENPLQFRFRAKFYPEDVAEELIQDITLRLFYLQVKNAILTDEIYCPPETSVLLASYAVQARHGDHNKTTHTAGFLANDRLLPQRVIDQHKMSKDEWEQSIMTWWQEHRSMLREDAMMEYLKIAQDLEMYGVNYFEIRNKKGTDLWLGVDALGLNIYEQDDRLTPKIGFPWSEIRNISFSEKKFIIKPIDKKAPDFMFFAPRVRINKRILALCMGNHELYMRRRKPDTIDVQQMKAQAREEKNAKQQEREKLQLALAARERAEKKQQEYEDRLKQMQEDMERSQRDLLEAQDMIRRLEEQLKQLQAAKDELELRQKELQAMLQRLEEAKNMEAVEKLKLEEEIMAKQMEVQRIQDEVNAKDEETKRLQDEVEDARRKQVIAAEAAAALLAASTTPQHHHVAEDENENEEELTNGDAGGDVSRDLDTDEHIKDPIEDRRTLAERNERLHDQLKALKQDLAQSRDETKETANDKIHRENVRQGRDKYKTLREIRKGNTKRRVDQFENM
partner: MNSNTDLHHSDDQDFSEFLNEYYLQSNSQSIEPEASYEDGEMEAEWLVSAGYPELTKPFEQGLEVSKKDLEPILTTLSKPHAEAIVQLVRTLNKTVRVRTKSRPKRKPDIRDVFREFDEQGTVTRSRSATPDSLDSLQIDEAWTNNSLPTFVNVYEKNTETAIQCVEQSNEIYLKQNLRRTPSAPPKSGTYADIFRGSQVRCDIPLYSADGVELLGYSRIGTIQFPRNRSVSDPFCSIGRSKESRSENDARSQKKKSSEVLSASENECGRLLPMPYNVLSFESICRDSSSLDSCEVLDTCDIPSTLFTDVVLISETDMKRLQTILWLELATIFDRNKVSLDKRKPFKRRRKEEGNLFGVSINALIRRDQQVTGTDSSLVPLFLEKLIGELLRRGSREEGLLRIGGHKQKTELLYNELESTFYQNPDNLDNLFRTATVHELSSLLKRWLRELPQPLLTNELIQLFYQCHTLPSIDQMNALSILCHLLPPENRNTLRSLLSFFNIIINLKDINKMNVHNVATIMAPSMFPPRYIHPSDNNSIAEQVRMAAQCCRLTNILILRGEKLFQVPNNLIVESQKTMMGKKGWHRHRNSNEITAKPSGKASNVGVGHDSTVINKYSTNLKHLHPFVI

Variants of: B1
Conditions: with conu_drome conu

**Q.** With MSPKALNVRVTTMDAELEFAIQSTTTGKQLFDQVVKTIGLREVWFFGLQYTDSKGDSTWIKLYKKVMNQDVKKENPLQFRFRAKFYPEDVAEELIQDITLRLFYLQVKNAILTDEIYCPPETSVLLASYAVQARHGDHNKTTHTAGFLANDRLLPQRVIDQHKMSKDEWEQSIMTWWQEHRSMLREDAMMEYLKIAQDLEMYGVNYFEIRNKKGTDLWLGVDALGLNIYEQDDRLTPKIGFPWSEIRNISFSEKKFIIKPIDKKAPDFMFFAPRVRINKRILALCMGNHELYMRRRKPDTIDVQQMKAQAREEKNAKQQEREKLQLALAARERAEKKQQEYEDRLKQMQEDMERSQRDLLEAQDMIRRLEEQLKQLQAAKDELELRQKELQAMLQRLEEAKNMEAVEKLKLEEEIMAKQMEVQRIQDEVNAKDEETKRLQDEVEDARRKQVIAAEAAAALLAASTTPQHHHVAEDENENEEELTNGDAGGDVSRDLDTDEHIKDPIEDRRTLAERNERLHDQLKALKQDLAQSRDETKETANDKIHRENVRQGRDKYKDLREIRKGNTKRRVDQFENM [T559D] as the variant, how does the “effect of a mutation on the interaction” value read?
**A.** increasing interaction strength
